Residue numbers refer to the chain shown, from its start.
T1: mouse IL17C (mouse, UniProt Q8K4C5 17-194, limits assumed, biotinylated in the receptor interaction, inhibition and serum stability assays (sites not given))
T1 construct: Bought recombinant protein; About 22 kDa reduced and about 40 kDa non-reduced on SDS-PAGE; Used plain (coated, ELISA) or biotinylated; also called biotinylated mouse IL17C; biotin-IL17C
T1 sequence (looked up): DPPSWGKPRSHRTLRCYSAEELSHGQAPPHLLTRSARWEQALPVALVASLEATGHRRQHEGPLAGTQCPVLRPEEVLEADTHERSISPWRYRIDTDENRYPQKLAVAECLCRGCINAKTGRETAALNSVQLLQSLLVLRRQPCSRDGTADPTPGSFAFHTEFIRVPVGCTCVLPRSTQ

T2: human IL17C (human, UniProt Q9P0M4 19-197)
T2 sequence: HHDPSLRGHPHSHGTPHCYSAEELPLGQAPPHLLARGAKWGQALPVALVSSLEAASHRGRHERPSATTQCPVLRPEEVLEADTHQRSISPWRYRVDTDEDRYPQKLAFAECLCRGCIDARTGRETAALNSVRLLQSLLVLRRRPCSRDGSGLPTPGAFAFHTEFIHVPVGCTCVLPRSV

T3: mouse IL-17B (mouse, UniProt Q9QXT6 23-180, limits assumed)
T3 sequence (looked up): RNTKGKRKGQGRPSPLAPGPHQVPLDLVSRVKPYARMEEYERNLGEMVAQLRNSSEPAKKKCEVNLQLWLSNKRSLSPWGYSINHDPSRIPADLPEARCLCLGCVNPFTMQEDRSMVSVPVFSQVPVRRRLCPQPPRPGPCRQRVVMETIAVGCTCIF

B1: MOR12758 (antibody, V domains shown)
VH: EVQLVQSGAEVKKPGESLKISCKGSGYSFTDYWISWVRQMPGKGLEWMGAIDPTDSYTRYSPSFQGQVTISADKSISTAYLQWSSLKASDTAMYYCARWYTSHPYYEGRYPMDVWGQGTLVTVSS
VL: DIALTQPASVSGSPGQSITISCTGTSSDVGHYNYVSWYQQHPGKAPKLMIYGVTKRPSGVSNRFSGSKSGNTASLTISGLQAEDEADYYCASADEWPTLHVFGGGTKLTVLG
notes: Tested as human-mouse chimeric IgG2a (human variable, mouse constant regions); Potential N-linked glycosylation sites were removed by site-directed mutagenesis
B2: MOR12740 (antibody, V domains shown)
VH: QVQLVQSGAEVKKPGSSVKVSCKASGGTFSIYAISWVRQAPGQGLEWMGGIIPILGIANYAQKFQGRVTITADESTSTAYMELSSLRSEDTAVYYCARDATHSYYHDYWGQGTLVTVSS
VL: DIALTQPASVSGSPGQSITISCTGTSSDVGSYETVSWYQQHPGKAPKVMIYEVSDRPSGVSNRFSGSKSGNTASLTISGLQAEDEADYYCGSFAHWGSWVFGGGTKLTVLG
notes: as for B1
B3: MOR12751 (antibody, V domains shown)
VH: QVQLQQSGPGLVKPSQTLSLTCAISGDSVSSNSAAWNWIRQSPSRGLEWLGVIYYRSKWYINYADSVKSRITINPDTSKNQFSLQLNSVTPEDTAVYYCAREGIVGGWFAYWGQGTLVTVSS
VL: DIELTQPPSVSVSPGQTASITCSGDKLGSKIAHWYQQKPGQAPVLVIYDDNERPSGIPERFSGSNSGNTATLTISGTQAEDEADYYCQSWDYLSWSVVFGGGTKLTVL
notes: as for B1
B4: MOR12757 (antibody, V domains shown)
VH: EVQLLESGGGLVQPGGSLRLSCAASGFTFSSYAMSWVRQAPGKGLEWVSFISSGGSETFYADSVKGRFTISRDNSKNTLYLQMNSLRAEDTAVYYCARVSYIYYYSWVLFDVWGQGTLVTVSS
VL: DIQMTQSPSSLSASVGDRVTITCRASQGIGTALNWYQQKPGKAPKLLIYDVSSLQSGVPSRFSGSGSGTDFTLTISSLQPEDFATYYCQQGLFLPFTFGQGTKVEIKR
notes: as for B1
B5: MOR12756 (antibody, V domains shown)
VH: QVQLQQSGPGLVKPSQTLSLTCAISGDSVSDNSVAWNWIRQSPSRGLEWLGRIYYRSKWYNDYAVSVKSRITINPDTSKNQFSLQLNSVTPEDTAVYYCAREVLLFPARSYGTGMDVWGQGTLVTVSS
VL: DIELTQPPSVSVSPGQTASITCSGDNLPSKYVHWYQQKPGQAPVLVIYDDNERPSGIPERFSGSNSGNTATLTISGTQAEDEADYYCGVADMPRQMKVFGGGTKLTVLG
notes: as for B1
B6: MOR12759 (antibody, V domains shown)
VH: EVQLVQSGAEVKKPGESLKISCKGSGYSFNNYWIAWVRQMPGKGLEWMGFIYPSNSATQYSPSFQGQVTISADKSISTAYLQWSSLKASDTAMYYCARDNEYSDSYFDVWGQGTLVTVSS
VL: DIVLTQSPATLSLSPGERATLSCRASQIVSSYLAWYQQKPGQAPRLLIYDASSRATGIPARFSGSGSGTDFTLTISSLEPEDFAVYYCQQSVNFPTTFGQGTKVEIKR
notes: as for B1
B7: MOR12760 (antibody, V domains shown)
VH: B6 VH
VL: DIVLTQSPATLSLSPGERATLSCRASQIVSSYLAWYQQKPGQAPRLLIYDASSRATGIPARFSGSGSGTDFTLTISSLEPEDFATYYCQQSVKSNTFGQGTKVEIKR
notes: as for B1
B8: MOR12762 (antibody, V domains shown)
VH: B6 VH
VL: B6 VL with V92E, N93Q, F94V
notes: as for B1
B9: MOR12761 (antibody, V domains shown)
VH: B6 VH
VL: B6 VL with V85T, V92N, N93G, F94W, P95L, T96P
notes: as for B1
B10: MOR12743 (antibody, V domains shown)
VH: QVQLVQSGAEVKKPGASVKVSCKASGYTFTSNFIHWVRQAPGQGLEWMGWISPYNGDTNYAQKFQGRVTMTRDTSISTAYMELSRLRSEDTAVYYCARESVYYGSDYGYNGMDIWGQGTLVTVSS
VL: DIELTQPPSVSVSPGQTASITCSGDNLGEEYVSWYQQKPGQAPVLVIYDDTKRPSGIPERFSGSNSGNTATLTISGTQAEDEADYYCASWDLWSVEVFGGGTKLTVLG
notes: Tested as human-mouse chimeric IgG2a (human variable, mouse constant regions); Potential N-linked glycosylation sites were removed by site-directed mutagenesis; also called MOR12743_h/m; MOR1243
B11: MOR12741 (antibody, V domains shown)
VH: QVQLVQSGAEVKKPGSSVKVSCKASGGTFSSYAISWVRQAPGQGLEWMGMIMPEVGMADYAQKFQGRVTITADESTSTAYMELSSLRSEDTAVYYCARDFIAVGSLEIWHYYYGLDVWGQGTLVTVSS
VL: DIELTQPPSVSVSPGQTASITCSGDNIGEHYASWYQQKPGQAPVLVISYDNERPSGIPERFSGSNSGNTATLTISGTQAEDEADYYCQSWTSQKPDYVFGGGTKLTVLG
notes: as for B1
B12: MOR12755 (antibody, V domains shown)
VH: QVQLQQSGPGLVKPSQTLSLTCAISGDSVSSNSAAWNWIRQSPSRGLEWLGKTYYRSTWSNDYAESVKSRITINPDTSKNQFSLQLNSVTPEDTAVYYCAREMDSLTRSASSIAFDYWGQGTLVTVSS
VL: DIELTQPPSVSVSPGQTASITCSGDNLREHYVHWYQQKPGQAPVLVIYDDTERPSGIPERFSGSNSGNTATLTISGTQAEDEADYYCATRDWSNVVFGGGTKLTVLG
notes: as for B1

Columns and labels:
[1] = molecular target: T1, mouse IL17C; assay: solution equilibrium titration (SET), ECL based, monovalent Fab fragment (Fab_FH format)
Experimental: Monovalent affinities of anti-IL17C antibodies were determined by solution equilibrium titration (SET) using Fab fragments. Affinity determination in solution was basically performed as described in the literature (Friquet et al., (1985) J. Immunol. Meth. 77: 305-19). In order to improve the sensitivity and accuracy of the SET method, it was transferred from classical ELISA to ECL based technology (Haenel et al. (2005) Anal Biochem. 339.1: 182-84). Binders were expressed and purified in Fab_FH format.

[2] = molecular target: T1, mouse IL17C; assay: ELISA, purified chimeric human/mouse IgG2a titrated on mouse IL17C, n=1-2
Experimental: All purified chimeric human-mouse chimeric IgG2a antibodies were titrated on mouse IL17C for EC₅₀ determination in ELISA starting with a concentration of 100 nM. EC₅₀ values on mouse IL17C were determined in 1 to 3 independent experiments.

[3] = molecular target: T2, human IL17C; assay: ELISA, purified chimeric human/mouse IgG2a on huIL-17C
[4] = molecular target: T1, mouse IL17C; assay: mIL17C - mIL-17RE inhibition assay (MSD): human/mouse IgG2a pre-incubated with biotinylated mouse IL17C, binding to coated mouse IL17RE/Fc detected by Streptavidin-ECL
Experimental: To determine inhibitory activity of purified anti-IL17C human-mouse chimeric IgG2a in a mIL-17 RE interaction assay, Maxisorp™ 384 well MSD plates were coated with 30 μL mouse IL17RE/Fc at 75 ng/mL in PBS at 4° C. overnight. The next day 25 μL of a serial antibody dilution (concentrations from 0.001 to 100 nM) were pre-incubated for 30 min at RT with an equal volume of biotinylated mouse IL17C at 0.125 nM. After blocking of plates for 1 h with 2.5% BSA in PBST, preformed antibody-ligand complexes were added for 1 h to coated IL17RE/Fc and receptor binding was detected via Streptavidin-ECL using MSD Sector Imager.
To characterize the antibodies in human/mouse IgG2a format in more detail, for each candidate IC₅₀ values were determined in the IL-17 receptor E inhibition assay as described herein above in up to 4 independent experiments.

[5] = molecular target: T3, mouse IL-17B; assay: ELISA, purified chimeric human/mouse IgG2a on msIL-17B
[6] = molecular target: T1, mouse IL17C; assay: ELISA on biotin-IL17C captured on avidin: chimeric IgG2a incubated 24 h at 37°C in mouse serum against freshly diluted IgG2a
Experimental: 96 well Maxisorp plates (Nunc; #442404) were coated with avidin at a concentration of 1 μg/ml in PBS overnight at 4° C. The next day, anti-IL17 chimeric IgG2a were incubated in mouse serum for 24 h at 37° C. at a final concentration 100 μg/mL. After the incubation step the antibodies were diluted 1:100 in LowCross buffer (Candor Bioscience; #100500). As a reference the same set of antibodies were freshly diluted in LowCross buffer+1% mouse serum and incubated for 30 min at RT. Avidin coated plates were incubated with blocking buffer (Superblock blocking buffer from Pierce, #37515) and subsequently 100 μL of 0.1 μg/mL biotin-IL17C in LowCross buffer was added to blocked wells. After a washing step a serial dilution of the serum-incubated and freshly diluted IgGs was added. Binding of IgGs was detected by anti-mouse-IgG2a POD conjugated detection antibody (diluted 1:5000 in LowCross buffer) using TMB One Component HRP as substrate. The reaction was stopped by adding 1M HCl and absorbance was measured at 450 nm.

Row | Binder | binding result [1] | EC50 [2] [nM] | binding result [3] | Kd [1] [nM] | IC50 [4] [nM] | binding result [5] | Coefficient of variation (Mouse Serum Stability Assay 24h/37°C) [6] [%]
1 | B1 | no binding | – | – | – | – | – | –
2 | B2 | – | 1.14 | no binding | 0.17 | 3.49 | no binding | –
3 | B3 | – | 0.39 | no binding | – | 0.16 | no binding | 3.75
4 | B4 | no binding | – | – | – | – | – | –
5 | B5 | no binding | – | – | – | – | – | –
6 | B6 | – | 0.29 | no binding | 0.22 | 0.028 | no binding | 8.8
7 | B7 | – | 0.27 | no binding | – | 0.122 | no binding | 35.3
8 | B8 | – | 0.4 | no binding | 0.096 | 0.009 | no binding | 2.43
9 | B9 | – | 0.36 | no binding | 0.085 | 0.024 | no binding | 1.23
10 | B10 | – | 0.3 | no binding | 0.048 | 0.016 | no binding | 2.88
11 | B11 | – | 0.47 | no binding | – | – | no binding | 13
12 | B12 | no binding | – | – | – | – | – | –

— patent US20190062422A1 (MorphoSys, published 2019)
